The target in assay [1] is T1, human GIP receptor (human, UniProt P48546 22-466).
T1 sequence (looked up): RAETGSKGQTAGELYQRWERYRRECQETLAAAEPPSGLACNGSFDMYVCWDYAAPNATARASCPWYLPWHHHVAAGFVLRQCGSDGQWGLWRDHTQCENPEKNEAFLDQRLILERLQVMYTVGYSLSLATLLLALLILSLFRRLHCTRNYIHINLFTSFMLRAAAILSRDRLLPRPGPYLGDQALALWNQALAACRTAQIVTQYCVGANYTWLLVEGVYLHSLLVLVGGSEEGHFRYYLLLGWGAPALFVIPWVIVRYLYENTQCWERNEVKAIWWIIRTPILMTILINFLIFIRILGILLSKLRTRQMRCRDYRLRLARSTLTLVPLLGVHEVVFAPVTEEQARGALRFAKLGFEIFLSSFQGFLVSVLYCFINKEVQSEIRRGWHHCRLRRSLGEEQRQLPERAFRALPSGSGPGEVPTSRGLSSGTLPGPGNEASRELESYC
Put plainly: cell-based or functional assay.

Assay [2] concerns the target T2, human GLP-1 receptor (human, UniProt P43220 24-463). Put plainly: cell-based or functional assay.
In assay [3] the target is T1, human GIP receptor. Put plainly: cell-based or functional assay. This is another data set of the same source.
The target in assay [4] is T2, human GLP-1 receptor. Kind of assay: displacement of [125I]GLP-1 from HEK-293 membranes expressing hGLP-1R (SPA beads).

Numbered stars: 1 amine (or outer) side, 2 acyl side, 3 side chain; on linkers, the order of the positions; unused ones are H or OH. Square brackets hold non-standard residues; d marks the D form. Side chains are listed from the residue outwards. Ends that are not written are not given here. * marks the point of attachment. C18 diacid = O=C(O)CCCCCCCCCCCCCCCCC(=O)*; γGlu = O=C(O)[C@H](CCC(=O)[*:2])N[*:1]; Iva = CC[C@](C)(N)C(=O)O; Abu = CC[C@H](N)C(=O)O; AEEA = NCCOCCOCC(=O)O; Aib = CC(C)(N)C(=O)O A value given as a limit tells only on which side of the number the result lay.

B1: SEQ ID NO: 37 (peptide)
peptide: Y[Aib]EGTFISDLSI[Aib]LDRIK([AEEA-AEEA-γGlu-C18 diacid])Q[Aib]EFIEWLLAQGPSSGAPPPS-NH2
modifications: N-terminus assumed
SMILES: CC[C@H](C)[C@H](NC(=O)[C@H](CCCNC(=N)N)NC(=O)[C@H](CC(=O)O)NC(=O)[C@H](CC(C)C)NC(=O)C(C)(C)NC(=O)[C@@H](NC(=O)[C@H](CO)NC(=O)[C@H](CC(C)C)NC(=O)[C@H](CC(=O)O)NC(=O)[C@H](CO)NC(=O)[C@@H](NC(=O)[C@H](Cc1ccccc1)NC(=O)[C@@H](NC(=O)CNC(=O)[C@H](CCC(=O)O)NC(=O)C(C)(C)NC(=O)[C@@H](N)Cc1ccc(O)cc1)[C@@H](C)O)[C@@H](C)CC)[C@@H](C)CC)C(=O)N[C@@H](CCCCNC(=O)COCCOCCNC(=O)COCCOCCNC(=O)CC[C@H](NC(=O)CCCCCCCCCCCCCCCCC(=O)O)C(=O)O)C(=O)N[C@@H](CCC(N)=O)C(=O)NC(C)(C)C(=O)N[C@@H](CCC(=O)O)C(=O)N[C@@H](Cc1ccccc1)C(=O)N[C@H](C(=O)N[C@@H](CCC(=O)O)C(=O)N[C@@H](Cc1c[nH]c2ccccc12)C(=O)N[C@@H](CC(C)C)C(=O)N[C@@H](CC(C)C)C(=O)N[C@@H](C)C(=O)N[C@@H](CCC(N)=O)C(=O)NCC(=O)N1CCC[C@H]1C(=O)N[C@@H](CO)C(=O)N[C@@H](CO)C(=O)NCC(=O)N[C@@H](C)C(=O)N1CCC[C@H]1C(=O)N1CCC[C@H]1C(=O)N1CCC[C@H]1C(=O)N[C@@H](CO)C(N)=O)[C@@H](C)CC
notes: Synthetic peptide, 39 residues
On to B1, for which, in assay [1], the “EC50 hGIPR 0% HSA (cAMP, HEK-293)” value turned out to be 0.00015 nM and the “EC50 hGIPR 0.1% BSA (cAMP, HEK-293)” value was 0.0201 nM. Moreover, the “EC50 hGLP-1R 0.1% BSA (cAMP, HEK-293)” value in assay [2] was greater than 10 nM. Besides, in assay [3], the “hGIPR EC50 (cAMP, human adipocytes)” value was 0.5 nM and the “hGIPR Emax (cAMP, human adipocytes)” value was determined as 113%. The IC50 in assay [4] was 41 nM.

B2: SEQ ID NO: 22 (peptide)
peptide: Y[Aib]EGTFISDLSI[Aib]K([AEEA-AEEA-γGlu-C18 diacid])DR[Aib]HQ[Aib]EFIEWLLAQRPSSGAPPPS-NH2
modifications: N-terminus assumed
SMILES: CC[C@H](C)[C@H](NC(=O)[C@H](Cc1ccccc1)NC(=O)[C@H](CCC(=O)O)NC(=O)C(C)(C)NC(=O)[C@H](CCC(N)=O)NC(=O)[C@H](Cc1c[nH]cn1)NC(=O)C(C)(C)NC(=O)[C@H](CCCNC(=N)N)NC(=O)[C@H](CC(=O)O)NC(=O)[C@H](CCCCNC(=O)COCCOCCNC(=O)COCCOCCNC(=O)CC[C@H](NC(=O)CCCCCCCCCCCCCCCCC(=O)O)C(=O)O)NC(=O)C(C)(C)NC(=O)[C@@H](NC(=O)[C@H](CO)NC(=O)[C@H](CC(C)C)NC(=O)[C@H](CC(=O)O)NC(=O)[C@H](CO)NC(=O)[C@@H](NC(=O)[C@H](Cc1ccccc1)NC(=O)[C@@H](NC(=O)CNC(=O)[C@H](CCC(=O)O)NC(=O)C(C)(C)NC(=O)[C@@H](N)Cc1ccc(O)cc1)[C@@H](C)O)[C@@H](C)CC)[C@@H](C)CC)C(=O)N[C@@H](CCC(=O)O)C(=O)N[C@@H](Cc1c[nH]c2ccccc12)C(=O)N[C@@H](CC(C)C)C(=O)N[C@@H](CC(C)C)C(=O)N[C@@H](C)C(=O)N[C@@H](CCC(N)=O)C(=O)N[C@@H](CCCNC(=N)N)C(=O)N1CCC[C@H]1C(=O)N[C@@H](CO)C(=O)N[C@@H](CO)C(=O)NCC(=O)N[C@@H](C)C(=O)N1CCC[C@H]1C(=O)N1CCC[C@H]1C(=O)N1CCC[C@H]1C(=O)N[C@@H](CO)C(N)=O
notes: as for B1
As to B2, in assay [1], the “EC50 hGIPR 0% HSA (cAMP, HEK-293)” value was 0.00016 nM and the “EC50 hGIPR 0.1% BSA (cAMP, HEK-293)” value amounted to 0.00666 nM. Moreover, in assay [2], the “EC50 hGLP-1R 0.1% BSA (cAMP, HEK-293)” value was greater than 10 nM. Besides, in assay [3], the “hGIPR EC50 (cAMP, human adipocytes)” value was determined as 0.6 nM and the “hGIPR Emax (cAMP, human adipocytes)” value turned out to be 98%. Besides, the half-maximal inhibitory concentration (IC50) in assay [4] was 221 nM.

B3: SEQ ID NO: 28 (peptide)
peptide: Y[Aib]EGTFISDLSI[Aib]K([AEEA-AEEA-γGlu-C18 diacid])DRIHQEEFIEWLLAQEPSSGAPPPS-OH
modifications: N-terminus assumed
SMILES: CC[C@H](C)[C@H](NC(=O)[C@H](Cc1ccccc1)NC(=O)[C@H](CCC(=O)O)NC(=O)[C@H](CCC(=O)O)NC(=O)[C@H](CCC(N)=O)NC(=O)[C@H](Cc1c[nH]cn1)NC(=O)[C@@H](NC(=O)[C@H](CCCNC(=N)N)NC(=O)[C@H](CC(=O)O)NC(=O)[C@H](CCCCNC(=O)COCCOCCNC(=O)COCCOCCNC(=O)CC[C@H](NC(=O)CCCCCCCCCCCCCCCCC(=O)O)C(=O)O)NC(=O)C(C)(C)NC(=O)[C@@H](NC(=O)[C@H](CO)NC(=O)[C@H](CC(C)C)NC(=O)[C@H](CC(=O)O)NC(=O)[C@H](CO)NC(=O)[C@@H](NC(=O)[C@H](Cc1ccccc1)NC(=O)[C@@H](NC(=O)CNC(=O)[C@H](CCC(=O)O)NC(=O)C(C)(C)NC(=O)[C@@H](N)Cc1ccc(O)cc1)[C@@H](C)O)[C@@H](C)CC)[C@@H](C)CC)[C@@H](C)CC)C(=O)N[C@@H](CCC(=O)O)C(=O)N[C@@H](Cc1c[nH]c2ccccc12)C(=O)N[C@@H](CC(C)C)C(=O)N[C@@H](CC(C)C)C(=O)N[C@@H](C)C(=O)N[C@@H](CCC(N)=O)C(=O)N[C@@H](CCC(=O)O)C(=O)N1CCC[C@H]1C(=O)N[C@@H](CO)C(=O)N[C@@H](CO)C(=O)NCC(=O)N[C@@H](C)C(=O)N1CCC[C@H]1C(=O)N1CCC[C@H]1C(=O)N1CCC[C@H]1C(=O)N[C@@H](CO)C(=O)O
notes: Synthetic peptide, 39 residues (Glu at 30)
B3: in assay [1], the “EC50 hGIPR 0% HSA (cAMP, HEK-293)” value came to 0.00073 nM and the “EC50 hGIPR 0.1% BSA (cAMP, HEK-293)” value is 0.0647 nM. Also, the “EC50 hGLP-1R 0.1% BSA (cAMP, HEK-293)” value in assay [2] was greater than 10 nM. In addition, in assay [3], the “hGIPR EC50 (cAMP, human adipocytes)” value amounted to 0.5 nM and the “hGIPR Emax (cAMP, human adipocytes)” value was 103%. In assay [4], this molecule yielded an IC50 of 426 nM.

B4: SEQ ID NO: 25 (peptide)
peptide: H-Y[Aib]EGT[Abu]ISDLSI[Aib]K([AEEA-AEEA-γGlu-C18 diacid])DRIHQEEFIEWLLAQGPSSGAPPPS-NH2
SMILES: CC[C@H](NC(=O)[C@@H](NC(=O)CNC(=O)[C@H](CCC(=O)O)NC(=O)C(C)(C)NC(=O)[C@@H](N)Cc1ccc(O)cc1)[C@@H](C)O)C(=O)N[C@H](C(=O)N[C@@H](CO)C(=O)N[C@@H](CC(=O)O)C(=O)N[C@@H](CC(C)C)C(=O)N[C@@H](CO)C(=O)N[C@H](C(=O)NC(C)(C)C(=O)N[C@@H](CCCCNC(=O)COCCOCCNC(=O)COCCOCCNC(=O)CC[C@H](NC(=O)CCCCCCCCCCCCCCCCC(=O)O)C(=O)O)C(=O)N[C@@H](CC(=O)O)C(=O)N[C@@H](CCCNC(=N)N)C(=O)N[C@H](C(=O)N[C@@H](Cc1c[nH]cn1)C(=O)N[C@@H](CCC(N)=O)C(=O)N[C@@H](CCC(=O)O)C(=O)N[C@@H](CCC(=O)O)C(=O)N[C@@H](Cc1ccccc1)C(=O)N[C@H](C(=O)N[C@@H](CCC(=O)O)C(=O)N[C@@H](Cc1c[nH]c2ccccc12)C(=O)N[C@@H](CC(C)C)C(=O)N[C@@H](CC(C)C)C(=O)N[C@@H](C)C(=O)N[C@@H](CCC(N)=O)C(=O)NCC(=O)N1CCC[C@H]1C(=O)N[C@@H](CO)C(=O)N[C@@H](CO)C(=O)NCC(=O)N[C@@H](C)C(=O)N1CCC[C@H]1C(=O)N1CCC[C@H]1C(=O)N1CCC[C@H]1C(=O)N[C@@H](CO)C(N)=O)[C@@H](C)CC)[C@@H](C)CC)[C@@H](C)CC)[C@@H](C)CC
notes: as for B1
For B4, in assay [1], the “EC50 hGIPR 0% HSA (cAMP, HEK-293)” value came to 0.00028 nM and the “EC50 hGIPR 0.1% BSA (cAMP, HEK-293)” value was found to be 0.0144 nM. Also, the “EC50 hGLP-1R 0.1% BSA (cAMP, HEK-293)” value in assay [2] is greater than 10 nM. For the same molecule, in assay [3], the “hGIPR EC50 (cAMP, human adipocytes)” value is 0.2 nM and the “hGIPR Emax (cAMP, human adipocytes)” value amounted to 112%. In assay [4], the IC50 came out at 417 nM.

On to H-Y[Aib]EGT[Iva]ISDLSI[Aib]K([AEEA-AEEA-γGlu-C18 diacid])DRIHQ[Aib]EFIEWLLAQGPSSGAPPPS-NH2 (Synthetic peptide, 39 residues) [SEQ ID NO: 23], for which, in assay [1], the “EC50 hGIPR 0% HSA (cAMP, HEK-293)” value is 0.00027 nM and the “EC50 hGIPR 0.1% BSA (cAMP, HEK-293)” value was 0.0177 nM. Also, in assay [2], the “EC50 hGLP-1R 0.1% BSA (cAMP, HEK-293)” value was greater than 10 nM. Also, in assay [3], the “hGIPR EC50 (cAMP, human adipocytes)” value came out at 0.2 nM and the “hGIPR Emax (cAMP, human adipocytes)” value came out at 91%. In addition, the 50% inhibitory concentration (IC50) in assay [4] worked out at 259 nM.

As to H-Y[Aib]EGTFISDLSI[Aib]K([AEEA-AEEA-γGlu-C18 diacid])DRIHQ[Aib]EFIEW[Iva]LAQGPSSGAPPPS-NH2 (Synthetic peptide, 39 residues) [SEQ ID NO: 31], in assay [1], the “EC50 hGIPR 0% HSA (cAMP, HEK-293)” value was determined as 0.00015 nM and the “EC50 hGIPR 0.1% BSA (cAMP, HEK-293)” value stood at 0.00696 nM. Besides, the “EC50 hGLP-1R 0.1% BSA (cAMP, HEK-293)” value in assay [2] is greater than 10 nM. Moreover, in assay [3], the “hGIPR EC50 (cAMP, human adipocytes)” value amounted to 0.7 nM and the “hGIPR Emax (cAMP, human adipocytes)” value is 121%. The IC50 in assay [4] was 292 nM.

These data come from patent US20240360194A1, “New Peptides as Potent and Selective GIP Receptor Agonists” (Sanofi, priority 2021, published 2024).
